# Data as given in US20250059285A1 (ARGENX, published 2025).
# T1: human Gal10-His (human, UniProt Q05315 2-142, limits assumed)
# T1 construct: also called hGal10-His; human Gal10-His tagged; not shown: His tag
# T1 sequence: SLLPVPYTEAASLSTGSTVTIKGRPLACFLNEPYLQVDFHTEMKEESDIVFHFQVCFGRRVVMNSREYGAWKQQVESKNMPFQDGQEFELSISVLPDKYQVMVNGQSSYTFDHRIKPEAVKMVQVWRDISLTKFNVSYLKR
# T2: recombinant human Charcot-Leyden crystals (crystalline galectin-10) (human, UniProt Q05315 2-142, limits assumed)
# T2 sequence: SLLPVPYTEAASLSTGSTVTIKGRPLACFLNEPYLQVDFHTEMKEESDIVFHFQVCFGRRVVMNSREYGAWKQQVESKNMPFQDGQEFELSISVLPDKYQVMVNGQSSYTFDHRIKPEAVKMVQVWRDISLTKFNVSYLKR
# Key:
# [1] = target: T1, human Gal10-His; assay: SPR Biacore 3000, purified hFab (2 conc.) on Gal10-His captured by anti-His CM5
# Method: (§1) The binding properties of the selected Fab clones to human Gal10 were analyzed via a capture method established on a Biacore 3000 instrument. Two concentrations of the selected Fab clones were tested on human Gal10-His immobilized on a CM5 chip coated with a monoclonal anti-His. As controls, the clone g7B07 and g7B07_N53A were injected at the beginning and the end of the run. Briefly, a CM5 chip was coated with a monoclonal anti-His antibody (4000 RU), then a fixed concentration of the human Gal10-His (25 μg/mL) was captured on the anti-His chip before receiving two concentrations of the clones in the human Fab backbone.
# [2] = target: T3, cynomolgus Gal10-His (WGS isoform) (cynomolgus); assay: SPR, summary table, cynomolgus_WGS Gal10
# T3 construct: also called cynomolgus antigen
# [3] = target: T1, human Gal10-His; assay: SPR, overview table of lead Fab candidates
# [4] = target: T1, human Gal10-His; assay: SPR, summary table, human Gal10
# [5] = target: T1, human Gal10-His; assay: SPR against T0 reference; sample 4 weeks at 37 C
# Method: (§2) The functional active concentration of the candidates was then assessed by SPR on a Biacore 3000 instrument (FIG. 4). All samples were evaluated with methods meeting the standard qualification criteria. Aliquots were tested at predefined test concentrations against titration curves from reference samples (T0, −80° C. storage) and in the presence of quality control (QC) samples covering a range of 70-130% relative activity (% RA) towards the reference material.
# (§3) comparison/reference ⁽¹⁾ samples correspond to aliquots kept at +37° C. for 4 weeks ⁽²⁾ samples correspond to aliquots kept at +5° C. for 4 weeks prior to nebulization. In brief, samples were nebulized with an Aerogen Solo active vibrating mesh nebulizer that converted a drug solution into an inhalable aerosol. Three different devices for each time-point were used per clone and results are reported by the device (nebulizer) serial number. In case of device fouling, indicated by longer nebulization times […]
# [6] = target: T1, human Gal10-His; assay: competition ELISA on coated Gal10-His; hFab 20 ug/mL, competitor g7B07-hFab-Biot, streptavidin-HRP
# Method: An epitope binning analysis of the humanized Fab clones was carried out in comparison with the humanized Fab of g7B07.
# For this experiment, a sub-optimal concentration of the biotinylated clone g7B07-humanized Fab was added to the Gal10 coated plate and pre-incubated with the selected clones. The percentage competition with g7B07 was then determined (Table 17). Motavizumab (Mota) in a human Fab backbone was used as a negative control (0% competition). Clone g7B07 was used as the positive control for competition and was therefore set as the 100% competition value. The anti-human specific clone 1D11 (binding to Tyrosine 69 residue) was included in the tested panel as a negative control for competition with 7B07 for Gal10 binding because it was known that clone 1D11 binds to the opposite side of Gal10 (including Tyrosine 69).
# [7] = target: T2, recombinant human Charcot-Leyden …; assay: cell-based or functional assay
# [8] = target: T1, human Gal10-His; assay: SPR against T0 reference; sample 4 weeks at 5 C, then nebulized
# Method: as §2, §3
# [9] = target: T1, human Gal10-His; assay: summary of periplasmic extract screening (BLI or SPR)
# [10] = target: T1, human Gal10-His; assay: SPR Biacore 3000, Fab periplasmic extract on Gal10-His-coated CM5
# Method: The binding properties of the Fabs (periplasmic extract) to human Gal10-His were analyzed by SPR with a Biacore 3000 instrument. For this purpose, the diluted periplasmic extract was applied on a CM5 chip coated with human Gal10-His. As a positive control, a 20 nM injection of the purified g7B07 clone in the human Fab backbone was included at the beginning and end of the run.
# The binding capacity of the Fab periplasmic extract was analyzed by SPR technology using a Biacore 3000. Briefly, diluted periplasmic extracts were injected on CM5 chip coated with 2500 RU of Gal10-His. The amplitude of the binding (Rmax), the dissociation (off-rate) of each clone, as well as the off-rate fold change compared to the controls (g7B07 and g7B07_N53A) are indicated. Clones g20H09 and g23H09 had similar or better off rate compared to the control g7B07 (Table 10). The randomized part of the CDR2 sequence is underlined (Table 10).
# [11] = target: T1, human Gal10-His; assay: SPR slope against calibrators on captured Gal10-His; T0 sample
# Method: (§4) The binding properties of the seven selected clones following two weeks of temperature stress was analysed using an optimized capture method on a Biacore 3000 instrument. The binding properties of the stressed samples were determined, compared to the calibration point, and expressed as a percentage of Relative Activity (% RA).
# (§5) Briefly, a capture method was set-up on a Biacore 3000 instrument. For this purpose, a CM5 chip was coated with a monoclonal anti-His antibody (4000 RU), then a fixed concentration of the human Gal10-His (25 μg/mL) was captured on the anti-His chip before receiving duplicate injections of the calibrators, QC samples and temperature stressed samples of each clone. The slope of each injected sample was then calculated using the BIA evaluation software. Concentrations of the QC samples and temperature stressed samples were back-calculated by interpolating the obtained slopes of these samples to the calibrator curve. Obtained values were within +/−20% of the nominal concentration of the tested samples and are expressed as average relative accuracy (avg % RA) (Table 13).
# [12] = target: T1, human Gal10-His; assay: SPR Biacore 3000, purified hFab on captured Gal10-His
# Method: as §1
# [13] = target: T1, human Gal10-His; assay: SPR slope against calibrators on captured Gal10-His; sample 2 weeks at 37 C
# Method: as §4, §5
# [14] = target: T3, cynomolgus Gal10-His (WGS isoform); assay: SPR Biacore 3000, hFab on captured cynomolgus Gal10-His (WGS); column head prints (M), the text gives nM
# Method: (§6) The binding properties of the selected clones to human and cynomolgus Gal10 was analyzed via a capture method established on a Biacore 3000 instrument.
# (§7) For this purpose, two approaches were used. In the first, two concentrations of the selected clones were applied on cynomolgus (WGS isoform) Gal10-His capture on a CM5 chip coated with a monoclonal anti-His antibody. The second approach involved a serial dilution that was applied on human or cynomolgus (WGS isoform) Gal10-His in the same set-up.
# [15] = target: T1, human Gal10-His; assay: SPR Biacore 3000, hFab on human Gal10-His captured by anti-His CM5
# Method: as §6, §7
# [16] = target: T3, cynomolgus Gal10-His (WGS isoform); assay: SPR Biacore 3000, hFab on cynomolgus Gal10-His (WGS) captured by anti-His CM5
# Method: as §6, §7
# [17] = target: T1, human Gal10-His; assay: SPR Biacore 3000, hFab on captured human Gal10-His; column head prints (M), the text gives nM
# Method: as §6, §7
# [18] = target: T1, human Gal10-His; assay: SPR Biacore 3000, hFab on captured human Gal10-His
# Source text: as §7
# Further characterization of the cynomolgus cross-reactivity of these clones highlighted g24F02_N53A and g23H09.
Binder,Kd [1] [nM],kd-fold drop vs g7B07 [1] [fold],koff [1] [s⁻¹],kon [1] [M⁻¹ s⁻¹],Kd [2] [nM],koff [2] [s⁻¹],Kd [3] [nM],koff [3] [s⁻¹],Kd [4] [nM],koff [4] [s⁻¹],% relative activity by SPR [5] [%],% Competition against g7B07-Biot [6] [%],Mean OD value [6] [OD],"crystal dissolution % Relative Activity towards the reference T0 after 2 h, nebulized [7] [%]","crystal dissolution % Relative Activity towards the reference T0 after 2 h, stressed [7] [%]","recGal10 crystal dissolution EC50 (T2 h), Assay 1, nebulized [7] [µg/mL]","recGal10 crystal dissolution EC50 (T2 h), Assay 1, stressed (4 W at 37 C) [7] [µg/mL]","recGal10 crystal dissolution EC50 (T2 h), Assay 1, unstressed (T0) [7] [µg/mL]",% relative activity by SPR [8] [%],% Relative Activity (RA) on Biacore [11] [%],other results
"g20H09 (Fab) (Fab, V domains shown, same VH/VL) VH: EVQLLESGGGLVQPGGSLRLSCAASGFTFRSYDMSWVRQAPGKGLEWVSAIKWHRITYYADSVKGRFTISRDNSKNTLYLQMNSLRAEDTAVYYCATTHGIGTLGFGSWGQGTLVTVSS VL: SYELTQPLSVSVALGQTARITCDGNNIGSKSAQWYQQKPGQAPVLVIYADEYRPEGIPERFSGSNSGNTATLTISRAQAGDEADYYCQVWDGSAAVFGGGTQLTVL",17.5,0.3,0.015,860000,22,0.046,17.7,0.047,17.5,0.015,101,93.2,0.33,66,96,395,272,260,97,110,"kd, fold compared to g7B07 (BLI or SPR) [9]: 0.8 fold; Fold off-rate compared to g7B07 [10]: 1.3 fold; koff [10]: 0.0088 s⁻¹; fold higher dissociation rate than g7B07 [12]: 3 fold; % Relative Activity (RA) on Biacore [13]: 86%"
"g7B07_N53A (human Fab) (Fab, V domains shown, VH assembled by inference as for g7B07; Human Fab backbone; also called g7B07_N53A (mean)) VH: EVQLLESGGGLVQPGGSLRLSCAASGFTFRSYDMSWVRQAPGKGLEWVSAIKAGGGITYYADSVKGRFTISRDNSKNTLYLQMNSLRAEDTAVYYCATTHGIGTLGFGSWGQGTLVTVSS VL: SYELTQPLSVSVALGQTARITCDGNNIGSKSAQWYQQKPGQAPVLVIYADEYRPEGIPERFSGSNSGNTATLTISRAQAGDEADYYCQVWDGSAAVFGGGTQLTVL",144,0.06,0.078,640000,–,–,145,0.079,–,–,95,–,–,53,82,584,379,309,94,–,Kd [14]: 417 nM; Amplitude R0 [15]: 119 RU; koff [15]: 0.079 s⁻¹; kon [15]: 540000 M⁻¹ s⁻¹; Amplitude R0 [16]: 30 RU; koff [16]: 0.21 s⁻¹; kon [16]: 510000 M⁻¹ s⁻¹; Kd [17]: 145 nM
"g24F02_N53A (human Fab) (Fab, V domains shown, Human Fab backbone: human CH1 and human lambda constant domain (pUPEX vectors); also called g24F02_N53A_2W) VH: EVQLLESGGGLVQPGGSLRLSCAASGFTFSSYAMSWVRQAPGKGLEWVSAINAGGGSTSYADSVKGRFTISRDNSKNTLYLQMNSLRAEDTAVYYCAKGLRVGVLGFDYWGQGTLVTVSS VL: SYELTQPLSVSVALGQTARITCDGNNIGSKSAQWYQQKPGQAPVLVIYADEYRPEGIPERFSGSNSGNTATLTISRAQAGDEADYYCQVWDGSAAVFGGGTQLTVL",2.3,2.8,0.0016,710000,8,0.0088,1.4,0.0018,1.4,0.0018,103,99,0.2,120,117,–,–,–,111,98,"Kd [14]: 8 nM; fold better affinity than g7B07 [18]: 6.3 fold; fold better off-rate than g7B07 [18]: 3.5 fold; recGal10 crystal dissolution EC50 (T2 h), Assay 2, nebulized [7]: 159 µg/mL; recGal10 crystal dissolution EC50 (T2 h), Assay 2, stressed (4 W at 37 C) [7]: 164 µg/mL; recGal10 crystal dissolution EC50 (T2 h), Assay 2, unstressed (T0) [7]: 191 µg/mL; Amplitude R0 [15]: 647 RU; koff [15]: 0.0018 s⁻¹; kon [15]: 1.3e+06 M⁻¹ s⁻¹; Amplitude R0 [16]: 544 RU; koff [16]: 0.0088 s⁻¹; kon [16]: 1.1e+06 M⁻¹ s⁻¹; Kd [17]: 1.43 nM; fold better affinity than g7B07 [12]: 4.7 fold; % Relative Activity (RA) on Biacore [13]: 99%"
